According to patent US20070082364A1 (Takeda / Millennium, published 2007):

Experiments:
human GPR7 = target: T1, human GPR7 (human, UniProt P48145 1-328); test: cell-based or functional assay
T1 sequence: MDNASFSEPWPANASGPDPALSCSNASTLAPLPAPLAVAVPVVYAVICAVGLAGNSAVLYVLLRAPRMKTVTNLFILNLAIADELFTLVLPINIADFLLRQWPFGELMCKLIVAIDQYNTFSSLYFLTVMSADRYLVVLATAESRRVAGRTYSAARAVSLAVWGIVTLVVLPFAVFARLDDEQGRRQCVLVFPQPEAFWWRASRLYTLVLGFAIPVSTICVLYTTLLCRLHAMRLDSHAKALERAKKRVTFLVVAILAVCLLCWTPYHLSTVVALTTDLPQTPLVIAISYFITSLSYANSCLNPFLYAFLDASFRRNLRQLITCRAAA

human GPR8 = human GPR8 (human, UniProt P48146 1-333); test: cell-based or functional assay
Sequence of human GPR8 (P48146 whole entry): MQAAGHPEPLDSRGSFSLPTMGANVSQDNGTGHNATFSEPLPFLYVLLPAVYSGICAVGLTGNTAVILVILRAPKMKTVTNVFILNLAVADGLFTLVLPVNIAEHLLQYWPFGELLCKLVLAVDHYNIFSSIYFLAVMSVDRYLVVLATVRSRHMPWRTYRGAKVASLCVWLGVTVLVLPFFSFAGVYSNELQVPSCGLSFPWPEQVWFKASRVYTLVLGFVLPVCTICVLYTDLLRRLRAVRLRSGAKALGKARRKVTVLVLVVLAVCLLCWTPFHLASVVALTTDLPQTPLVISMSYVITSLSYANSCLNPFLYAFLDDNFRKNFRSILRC

B1: human neuropeptide W (1-23) (peptide)
peptide: WYKHVASPRYHTVGRAAGLLMGL
cAMP level in human GPR7-expressed cells, relative to FSK stimulation only (human GPR7): 46% | cAMP level in human GPR8-expressed cells, relative to FSK stimulation only (human GPR8): 31%
